# Where a chain is given by its changes, count along the chain named.
# T1: human C2 D269A (human, UniProt P06681 21-752)
# T1 sequence: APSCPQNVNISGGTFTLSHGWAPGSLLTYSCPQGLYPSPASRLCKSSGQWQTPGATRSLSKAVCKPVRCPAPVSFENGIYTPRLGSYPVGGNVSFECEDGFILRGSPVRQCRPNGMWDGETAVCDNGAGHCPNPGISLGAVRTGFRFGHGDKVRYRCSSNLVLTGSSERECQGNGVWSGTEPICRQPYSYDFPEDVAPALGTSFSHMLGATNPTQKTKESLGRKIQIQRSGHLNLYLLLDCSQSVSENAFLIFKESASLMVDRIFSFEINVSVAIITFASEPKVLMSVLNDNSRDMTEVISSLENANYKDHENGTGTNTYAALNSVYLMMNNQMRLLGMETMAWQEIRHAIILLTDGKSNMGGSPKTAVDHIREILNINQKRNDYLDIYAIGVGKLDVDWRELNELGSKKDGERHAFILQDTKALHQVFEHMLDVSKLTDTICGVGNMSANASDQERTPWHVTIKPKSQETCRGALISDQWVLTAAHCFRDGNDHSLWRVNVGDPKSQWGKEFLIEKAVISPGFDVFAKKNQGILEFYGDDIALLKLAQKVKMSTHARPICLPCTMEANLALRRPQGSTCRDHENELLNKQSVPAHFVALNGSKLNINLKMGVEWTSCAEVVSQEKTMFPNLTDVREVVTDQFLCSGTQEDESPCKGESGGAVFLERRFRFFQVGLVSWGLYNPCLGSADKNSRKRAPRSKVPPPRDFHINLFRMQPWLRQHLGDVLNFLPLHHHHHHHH
# T2: human C2 Y328A (human, UniProt P06681 21-752)
# T2 sequence: T1 sequence with A249D, Y308A
# T3: human C2 D417A (human, UniProt P06681 21-752)
# T3 sequence: T1 sequence with A249D, D397A
# T4: human complement C2 (human, UniProt P06681 21-752)
# T4 sequence: T1 sequence with A249D
# B1: RF16-242 (antibody, human IgG4 S228P, lambda, V domains shown)
# VH: EVQLLQSGAEVKKPGESLKISCKGSGYSFTSYWIGWVRQMPGKGLEWMGIIYPGDSDTRYSPSFQGQVTISADKSISTAYLQWSSLKASDTAMYYCARRGHYGDYFDYWGQGTLVTVSS
# VL: SYELTQPPSVSVSPGQTARITCSGDALPKKYAYWYHQKSGQAPVLVIYEDRRRPSEIPERFSGSSSGTMATLTITGAQVEDEGVYFCYSRDRAGNQRVFGGGTQLTVLG
# notes: pH-dependent anti-C2 antibody from a phage display library
# B2: RF16-226 (antibody)
# heavy: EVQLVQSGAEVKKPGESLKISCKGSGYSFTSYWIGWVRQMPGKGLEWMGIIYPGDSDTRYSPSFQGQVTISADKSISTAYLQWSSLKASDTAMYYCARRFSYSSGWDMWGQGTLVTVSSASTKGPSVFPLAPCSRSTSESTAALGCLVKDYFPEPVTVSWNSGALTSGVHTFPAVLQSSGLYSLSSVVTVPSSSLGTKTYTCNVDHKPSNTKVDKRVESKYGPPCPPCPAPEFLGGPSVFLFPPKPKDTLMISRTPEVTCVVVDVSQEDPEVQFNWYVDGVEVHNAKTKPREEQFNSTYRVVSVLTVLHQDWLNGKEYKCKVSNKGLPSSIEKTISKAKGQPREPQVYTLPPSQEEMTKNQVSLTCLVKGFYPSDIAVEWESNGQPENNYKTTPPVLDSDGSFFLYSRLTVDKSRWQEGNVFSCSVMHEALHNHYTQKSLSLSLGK
# light: SYELTQPPSVSVSPGQTARITCSGDALTSKYVAWYQQKSGLAPLLVIYEDTRRPSGIPAKFSGSSSGSVATLTISGAHGDDEADYYCYSTDASGHQRVFGGGTKLTVLSQPKAAPSVTLFPPSSEELQANKATLVCLISDFYPGAVTVAWKADGSPVKAGVETTKPSKQSNNKYAASSYLSLTPEQWKSHRSYSCQVTHEGSTVEKTVAPTECS
# How the values were obtained:
# human C2 D269A = target: T1, human C2 D269A; experiment: SPR, KD relative to WT C2;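 also: biacore SPR at 37 °C, anti-C2 mAbs captured on anti-human IgG chips with alanine or serine point mutants of C2 as analyte, KD from 1:1 fit compared with wild-type C2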
# Protocol: (§1) Surface plasmon resonance (SPR, Biacore) was used for all binding affinity analyses. In brief, goat anti-human IgG was directly immobilised onto the carboxymethyl dextran surface of CM5 sensorchips to approximately 12,000 RU using standard NHS/EDC chemistry at pH 5. The immobilised antibody surface was pre-conditioned with ten injections of polyclonal human IgG (Privigen 60 s) prepared at 1 μg/mL. Ligands (anti-C2 mAbs) were captured at the beginning of each cycle as described below. An adjacent spot or flow cell in which only Polyclonal IgG was capture was used as a reference surface. The goat anti-human IgG Fc antibody surface was regenerate in 100 mM H3PO4, injected for 45 seconds at the end of each cycle. Experiments were performed at 37° C. and the flow rate of each experiment was kept constant at 30 μL/min.
# (§2) Sensogram data was double-referenced against a reference anti-IgG surface (i.e. minus anti-C2 mAb) and blank buffer injections obtained within each experiment. The binding data was fit to 1:1 (kinetic or steady-state) model using local Rmax and null refraction index (RI=0) when appropriate. Buffers and solutions were filtered (0.22 μm) prior to use.
# human C2 Y328A = target: T2, human C2 Y328A; experiment: SPR, KD relative to WT C2;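 also: biacore SPR at 37 °C, anti-C2 mAbs captured on anti-human IgG chips with alanine or serine point mutants of C2 as analyte, KD from 1:1 fit compared with wild-type C2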
# Protocol: as §1, §2
# human C2 D417A = target: T3, human C2 D417A; experiment: SPR, KD relative to WT C2;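 also: biacore SPR at 37 °C, anti-C2 mAbs captured on anti-human IgG chips with alanine or serine point mutants of C2 as analyte, KD from 1:1 fit compared with wild-type C2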
# Protocol: as §1, §2
# human complement C2 = target: T4, human complement C2; experiment: cell-based or functional assay
Binder,Fold diff (human C2 D269A) [fold],Fold diff (human C2 Y328A) [fold],Fold diff (human C2 D417A) [fold],"log IC50 for inhibition of C1s-mediated cleavage of C2 (C2a band on SDS-PAGE, C1s titrated) (human complement C2) [nM]"
B1,2,6,3,–
B2,–,–,–,50.3

# Source: US20220332804A1 (CSL INNOVATION, published 2022)
